The results in this text go back to patent US20070092518A1 (published 2007).

Positions count from the first letter of the chain named.

First the molecules themselves.
B1: SEQ ID NO 101 (Fab, V domains shown)
VH: EVQLVESGGGLVQPGGSLRLSCRASGFTFSNHYMNWVRQAPGKGLEWIGEIRSKSSNSATSYAESVKGRFIISRDDNGNSLYLEMNSLKTEDTAEYYCAQNYYGSTPDYWGQGTLVTVS
VL: EIVLTQSPDFQSVTPKEKVTITCRASQFVGSSIHWYQQKPDQSPKLLIKYASESMSGVPSRFSGSGSGTDFTFTISSLEAEDAATYYCQQSHSWPFTFGPGTKVDIK
notes: Fab, E. coli lysate
B2: SEQ ID NO 159 (Fab, V domains shown)
VH: B1 VH with R23A, T28I, Y33W, S56I, N57Y, D76G, N79T, Y82T, Q100R, P107Y
VL: B1 VL
notes: Fab, E. coli lysate
B3: SEQ ID NO 148 (Fab, V domains shown)
VH: B1 VH with G26Q, T28I, S56I, N57Y, S58G, D76G, S80D, P107Y
VL: B1 VL
notes: Fab, E. coli lysate
B4: SEQ ID NO 111 (Fab, V domains shown)
VH: B1 VH with V5T, T28I, S56I, S61H, Q100R
VL: B1 VL
notes: Fab, E. coli lysate
B5: SEQ ID NO 126 (Fab, V domains shown)
VH: B1 VH with F27S, S56I, N57Y, S61H, D76G, G78K, P107Y
VL: B1 VL
notes: Fab, E. coli lysate
B6: SEQ ID NO 124 (Fab, V domains shown)
VH: B1 VH with R23A, G26Q, F27S, S61H, D76G, G78K, S80D, Q100R
VL: B1 VL
notes: Fab, E. coli lysate
B7: SEQ ID NO 138 (Fab, V domains shown)
VH: B1 VH with V5T, T28I, D76G, G78K, S80D, Q100R
VL: B1 VL
notes: Fab, E. coli lysate
B8: SEQ ID NO 110 (Fab, V domains shown)
VH: B1 VH with R23A, F27S, T28I, Y33W, S56I, G78K, N79T, S80D
VL: B1 VL
notes: Fab, E. coli lysate
B9: SEQ ID NO 140 (Fab, V domains shown)
VH: B1 VH with V5T, R23A, F27S, S61H, N79T, Q100R, P107Y
VL: B1 VL
notes: Fab, E. coli lysate
B10: SEQ ID NO 144 (Fab, V domains shown)
VH: B1 VH with F27S, T28I, D76G, G78K, S80D, P107Y
VL: B1 VL
notes: Fab, E. coli lysate
B11: SEQ ID NO 151 (Fab, V domains shown)
VH: B1 VH with R23A, G26Q, T28I, S56I, N57Y, S58G, S61H, D76G, Y82T, Q100R
VL: B1 VL
notes: Fab, E. coli lysate
B12: SEQ ID NO 118 (Fab, V domains shown)
VH: B1 VH with R23A, G26Q, Y33W, S56I, G78K, Q100R
VL: B1 VL
notes: Fab, E. coli lysate
B13: SEQ ID NO 106 (Fab, V domains shown)
VH: EVQLVESGGGLVQPGGSLRLSCAASQFIFSNHWMNWVRQAPGKGLEWIGEIRSKSSNGATSYAESVKGRFIISRDGNKTDLTLEMNSLKTEDTAEYYCAQNYYGSTYDYWGQGTLVTVS
VL: B1 VL
notes: Fab, E. coli lysate
B14: SEQ ID NO 109 (Fab, V domains shown)
VH: B13 VH with A23R, Q26G, F27S, G58S, S61H, G76D, T79N, Q100R
VL: B1 VL
notes: Fab, E. coli lysate
B15: SEQ ID NO 117 (Fab, V domains shown)
VH: B13 VH with V5T, I28T, G58S, S61H, D80S, Q100R, Y107P
VL: B1 VL
notes: Fab, E. coli lysate
B16: SEQ ID NO 112 (Fab, V domains shown)
VH: B1 VH with Y33W, S56I, N57Y, S61H, G78K, N79T, S80D, Q100R
VL: B1 VL
notes: Fab, E. coli lysate
B17: SEQ ID NO 145 (Fab, V domains shown)
VH: B1 VH with V5T, G26Q, F27S, S58G, S80D, P107Y
VL: B1 VL
notes: Fab, E. coli lysate
B18: SEQ ID NO 115 (Fab, V domains shown)
VH: B1 VH with F27S, T28I, S56I, S61H, D76G, N79T, P107Y
VL: B1 VL
notes: Fab, E. coli lysate
B19: SEQ ID NO 157 (Fab, V domains shown)
VH: B1 VH with V5T, F27S, T28I, Y33W, S56I, N57Y, N79T, Y82T
VL: B1 VL
notes: Fab, E. coli lysate
B20: SEQ ID NO 104 (Fab, V domains shown)
VH: B1 VH with V5T, G26Q, T28I, S56I, S61H, G78K, S80D
VL: B1 VL
notes: Fab, E. coli lysate
B21: SEQ ID NO 130 (Fab, V domains shown)
VH: B1 VH with T28I, S56I, N57Y, S61H, P107Y
VL: B1 VL
notes: Fab, E. coli lysate
B22: SEQ ID NO 127 (Fab, V domains shown)
VH: B13 VH with V5T, N57Y, G76D, K78G, T79N, D80S, Q100R, Y107P
VL: B1 VL
notes: Fab, E. coli lysate
B23: SEQ ID NO 146 (Fab, V domains shown)
VH: B13 VH with Q26G, S56I, S61H, T79N, Q100R, Y107P
VL: B1 VL
notes: Fab, E. coli lysate
B24: SEQ ID NO 141 (Fab, V domains shown)
VH: B13 VH with Q26G, F27S, I28T, S56I, N57Y, T79N, D80S, T82Y, Q100R
VL: B1 VL
notes: Fab, E. coli lysate
B25: SEQ ID NO 155 (Fab, V domains shown)
VH: B1 VH with V5T, R23A, G26Q, F27S, Y33W, N57Y, G78K, Q100R, P107Y
VL: B1 VL
notes: Fab, E. coli lysate
B26: SEQ ID NO 131 (Fab, V domains shown)
VH: B13 VH with V5T, I28T, W33Y, G58S, K78G, D80S
VL: B1 VL
notes: Fab, E. coli lysate
B27: SEQ ID NO 105 (Fab, V domains shown)
VH: B1 VH with V5T, R23A, T28I, S58G, Y82T
VL: B1 VL
notes: Fab, E. coli lysate
B28: SEQ ID NO 102 (Fab, V domains shown)
VH: B13 VH with A23R, Q26G, S56I, S61H, G76D, D80S, T82Y, Q100R
VL: B1 VL
notes: Fab, E. coli lysate
B29: SEQ ID NO 132 (Fab, V domains shown)
VH: B13 VH with F27S, W33Y, S56I, N57Y, G76D, T79N, D80S, Q100R, Y107P
VL: B1 VL
notes: Fab, E. coli lysate
B30: SEQ ID NO 108 (Fab, V domains shown)
VH: B13 VH with V5T, I28T, W33Y, S56I, N57Y, G58S, T79N, D80S
VL: B1 VL
notes: Fab, E. coli lysate
B31: SEQ ID NO 156 (Fab, V domains shown)
VH: B13 VH with V5T, F27S, I28T, S56I, G58S, G76D, T79N, Q100R
VL: B1 VL
notes: Fab, E. coli lysate
B32: SEQ ID NO 136 (Fab, V domains shown)
VH: B1 VH with V5T, R23A, G26Q, F27S, T28I, Y33W, S56I, N57Y, S61H, N79T
VL: B1 VL
notes: Fab, E. coli lysate
B33: SEQ ID NO 134 (Fab, V domains shown)
VH: B13 VH with V5T, Q26G, F27S, S56I, S61H, K78G, D80S, T82Y, Q100R, Y107P
VL: B1 VL
notes: Fab, E. coli lysate
B34: SEQ ID NO 158 (Fab, V domains shown)
VH: B13 VH with A23R, S56I, N57Y, S61H, G76D, T79N, T82Y, Q100R, Y107P
VL: B1 VL
notes: Fab, E. coli lysate
B35: SEQ ID NO 150 (Fab, V domains shown)
VH: B13 VH with I28T, W33Y, S56I, G76D, K78G, T82Y, Q100R
VL: B1 VL
notes: Fab, E. coli lysate
B36: SEQ ID NO 123 (Fab, V domains shown)
VH: B1 VH with V5T, G26Q, N57Y, S58G, S80D, Q100R, P107Y
VL: B1 VL
notes: Fab, E. coli lysate
B37: SEQ ID NO 135 (Fab, V domains shown)
VH: B13 VH with F27S, G58S, T82Y
VL: B1 VL
notes: Fab, E. coli lysate
B38: SEQ ID NO 149 (Fab, V domains shown)
VH: B1 VH with V5T, G26Q, T28I, N57Y, S61H, P107Y
VL: B1 VL
notes: Fab, E. coli lysate
B39: SEQ ID NO 137 (Fab, V domains shown)
VH: B13 VH with Q26G, F27S, I28T, W33Y, N57Y, G58S, K78G
VL: B1 VL
notes: Fab, E. coli lysate

T1 sequence (P01375 77-233 limits assumed): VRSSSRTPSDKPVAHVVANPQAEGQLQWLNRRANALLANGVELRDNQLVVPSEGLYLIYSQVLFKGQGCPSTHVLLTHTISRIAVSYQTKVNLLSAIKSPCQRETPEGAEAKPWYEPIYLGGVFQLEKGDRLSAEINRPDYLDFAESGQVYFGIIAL

This assay has as its target T1, human tumor necrosis factor-α (rHuTNF-alpha, Biosource) (human, UniProt P01375 77-233).
T1 construct: Bought recombinant protein coated on ELISA plates; The TNFα of the Biacore assay is not described further; also called TNFα; human TNFα
Put plainly: solid-phase ELISA, Fab lysate on coated rHuTNF-alpha. Summed up: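 E. coli lysates expressing His-tagged Fab (pTrcHis2A) were incubated 2 h at RT on wells coated with 1 μg/ml rHuTNF-α and blocked with BSA. Bound Fab was detected with biotinylated anti-human kappa plus penta-His conjugates, then streptavidin-POD and TMB. Absorbance was read at 450 nm.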
(In general: ELISA stands for enzyme-linked immunosorbent assay.)
Consider B1, for which the binding result is “binds”.

On to B2, for which the binding result is recorded as “binds”.

As to B3, the binding result is “binds”.

With B4, the binding result was “binds”.

B5: the binding result is on record as “binds”.

Take B6: the binding result is listed as “binds”.

With B7, the binding result was “binds”.

Consider B8, for which the binding result is on record as “binds”.

Turning to B9, the binding result is reported as “binds”.

As to B10, the binding result is “binds”.

For the molecule B11, the binding result was “binds”.

For the molecule B12, the binding result was “binds”.

As to B13, the binding result is “binds”.

In the case of B14, the binding result is given as “binds”.

In the case of B15, the binding result was “binds”.

Consider B16, for which the binding result is “binds”.

Consider B17, for which the binding result is recorded as “binds”.

As to B18, the binding result was “binds”.

As to B19, the binding result is “binds”.

B20: the binding result is recorded as “binds”.

Turning to B21, the binding result is reported as “binds”.

As to B22, the binding result is “binds”.

B23: the binding result was “binds”.

B24: the binding result is recorded as “binds”.

B25: the binding result was “binds”.

As for B26, the binding result is reported as “binds”.

As for B27, the binding result was “binds”.

On to B28, for which the binding result is reported as “binds”.

Turning to B29, the binding result is on record as “binds”.

With B30, the binding result is given as “binds”.

On to B31, for which the binding result is reported as “binds”.

For the molecule B32, the binding result is “binds”.

For the molecule B33, the binding result is given as “binds”.

B34: the binding result is recorded as “binds”.

For the molecule B35, the binding result is “binds”.

Consider B36, for which the binding result was “binds”.

Regarding B37, the binding result was “binds”.

Turning to B38, the binding result is “binds”.

Regarding B39, the binding result is listed as “binds”.
